{
  "source": "patent US6905817B1",
  "about": "“Ret-independent signaling pathway for GDNF” (Licestia Ltd., priority 1998, dated 2005)",
  "molecules": {"B1": {"name": "Glial cell line—derived neurotrophic factor (protein, UniProt P39905 78-211, looked up)", "Glial cell line-derived …": "SPDKQMAVLPRRERNRQAAAANPENSRGKGRRGQRGKNRGCVLTAIHLNVTDLGLGYETKEELIFRYCSGSCDAAETTYDKILKNLSRNRRLVSDKVGQACCRPIAFDDDLSFLDDNLVYHILRKHSAKRCGCI", "notes": "TGF-β family-related neurotrophic protein; from PeproTech and donated by Cephalon, Inc"}},
  "key": {"JNK": {"test_system": "JNK", "experiment": "JNK phosphorylation assay in SHEP cells", "format": "cell-based, human", "conditions": "GDNF 100 ng/ml", "description": "(§1) To assess GDNF-dependent MAPK and CREB phosphorylation in all studied cell lines, the semiconfluent cell monolayers were starved for 3 hours in serum-free medium, and then GDNF was applied for the indicated time. For the analysis of MAPK and CREB activation in Ret^−/− animals the DRG neurons were dissected from E18 mice and maintained in NGF-containing medium for 2 hours. After this time the neurons were deprived of NGF by placing them in NGF-free medium in the presence of anti-NGF antibodies. After 2 hr without NGF, the neurons were stimulated with GDNF. In the experiments involving Src-kinase inhibition, a Src-family kinase inhibitor PP2 was added at the indicated concentrations to the cell monolayers 5 min before GDNF application. In some experiments 1 μg/ml of soluble GFRα1 lacking a GPI anchor (GFRα1/Fc chimeric protein; R&D systems) was added 5 min prior to the GDNF application and was kept in the solution during the GDNF treatment, After stimulation, the cells were briefly washed with PBS/sodium vanadate and lysed in the buffer containing TBS, 2 mM EDTA, 1% NP-40, 1% Triton X-100, 1 mM PMSF, 1 mM Na3VO4 and a Complete, protease inhibitors cocktail (Boehringer Mannheim). Total cell protein for each extract was measured by MicroBSA (Pierce) and an equivalent amount of protein was resolved electrophoretically on 10% polyacrylamide gels. […]"}, "GFRα2^−/− DRG neurons": {"test_system": "GFRα2^−/− DRG neurons", "experiment": "GDNF-evoked [Ca^2+]i changes, confocal microscopy, GFRα2^−/− DRG neurons", "format": "cell-based, mouse", "description": "(§2) DRG from embryonic day 18 (E18) mice were treated with trypsin (Worthington), non-neuronal cells removed by preplating, and about 95% pure neurons cultured on poly-ornithine-laminin-coated glass coverslips in Ham's F14 medium (Imperial Laboratories) with serum substitute containing NGF, BDNF and NT-3 (all from PeproTech, 2 ng/ml if each) for at least 1 day before measurement. Neurotrophins were extensively washed out before GDNF application. GDNF was from PeproTech and donated by Cephalon, Inc. Ret-deficient mice (Schuchardt et al., 1994) were identified from heterozygote matings by the absence of kidneys and PCR-based genotyping. GFRα2-deficient mice were obtained from homozygote matings (Rossi et al., 1999).\n(§3) [Ca^2+]i was measured using a Bio-Rad MRC-1024 confocal microscope equipped with an argon-krypton laser. The cells were loaded with 10 μM Calcium Green-1AM (Molecular Probes), a membrane permeable Ca^2+ dye, by 30 min incubation in serum free cell-culture media at 37 ° C. and 5 % CO2. After loading, the neurons were kept at room temperature in Dulbecco's PBS solution contained 20 mM HEPES (pH=7.4) for at least 20 min prior to the experiments. All compounds were applied to the bath by a peristaltic pump. 6 kD Heparin (Sigma) and Alexa 568 nm fluorescent dye (Molecular Probes) were loaded into the cells using Molecular Probes' pinocytotic influx loading reagent basically according to the manufacturer instructions. […] Cell injection was performed using Eppendorf microinjection system. The average intensity of fluorescence in the predefined ROI (Region Of Interest) was measured on-line using TimeCourse software from BioRad. The calibration of fluorescence traces was performed in vitro using Fmax and Fmin values obtained with the calcium calibration buffer kit (Molecular Probes). Because the calibration solutions may not reflect the intracellular environment, the experimental data are presented as delta [Ca^2+]i calculated using Kd=190 nM for Calcium Green-1.\nTransgenic GFRα2 knock-out mice were produced in our laboratory. […]"}, "p42/p44 MAP kinases": {"test_system": "p42/p44 MAP kinases", "experiment": "MAPK phosphorylation assay in Ret^−/− DRG neurons", "format": "cell-based, mouse", "conditions": "GDNF 100 ng/ml", "description": "as §1"}, "[1]": {"test_system": "GFRα1-associated Src kinases", "experiment": "In vitro kinase assay on anti-GFRα1 immunoprecipitate from Ret^−/− DRG neurons", "format": "cell-based, mouse", "conditions": "GDNF 100 ng/ml, 5 min; Triton X-100 insoluble fraction", "description": "DRG neurons (5×10^5), SHEP neuroblastoma cells (10^7), Neuro2A neuroblastoma cells stably transfected with GFRα1 (10^7) or NIH3T3 cells (NIH3T3/pBpGFRα1) stably transfected with GFRα1 (10^7) were incubated in serum-free culture medium without (control) or with GDNF (GDNF-treated) for 0.5-15 min at 37° C. The cells were washed twice with cold PBS/vanadate and lysed in TX-100 lysis buffer (50 mM Tris-HCl, pH 7.5, 150 mM NaCl, 5 mM EDTA, 1% Triton X-100, 1 mM sodium orthovanadate, 1 mM phenylmethylsulfonyl fluoride (PMSF) and protease inhibitors (Boehringer) on ice for 1 hour. The postnuclear lysates were pre-cleared by incubation with 50 μl of 50% Protein G-Sepharose for goat polyclonal antibodies or Protein A-Sepharose CL4B (Pharmacia) for rabbit polyclonal antibodies for 1 hour at +4° C. After removal of the beads, the supernatants were incubated with 0.4-0.5 μg of anti-GFRα1 or anti-Yes polyclonal antibodies (Santa Cruz Biotechnology) overnight at +4° C. followed by incubation with Protein G or A-Sepharose for 2 hours. The immunocomplexes were washed twice in TX-100 lysis buffer without EDTA and twice in kinase buffer (25 mM Hepes, pH 7.4, 5 mM MgCl2, 5 mM MnCl2, 1 mM sodium orthovanadate). […] Quantification of the optical density of the blots was performed using the TINA program."}, "[2]": {"test_system": "wild type mouse DRG neurons", "experiment": "GDNF-evoked [Ca^2+]i changes, confocal microscopy with Calcium Green-1AM, wild type DRG neurons", "format": "cell-based", "description": "as §2, §3"}},
  "note": "Entries after “also recorded” stand apart in the source; their conditions may differ.",
  "data": [
    {"molecule": "B1", "values": [
      {"measurement": "JNK activation (phosphorylation)", "setting": "JNK", "value": "did not evoke JNK activation; also recorded: did not affect the phosphorylation of JNK"},
      {"measurement": "change in [Ca^2+]i", "setting": "GFRα2^−/− DRG neurons; GDNF 100 ng/ml, normal external Ca^2+", "value": "evoked both transient and sustained [Ca^2+]i elevation; also recorded: same pattern of fast and slow kinetics of Ca^2+ elevation as the wild type neurons"},
      {"measurement": "change in [Ca^2+]i", "setting": "GFRα2^−/− DRG neurons; GDNF after nominal removal of extracellular calcium (about 20 μM)", "value": "profound rapid and oscillatory (5 out of 9 cells) [Ca^2+]i increase"},
      {"measurement": "activation (phosphorylation) of MAPK", "setting": "p42/p44 MAP kinases", "value": "several-fold rapid activation of MAPK"},
      {"measurement": "phosphoprotein in in vitro kinase assay of anti-GFRα1 precipitate", "setting": "[1]", "value": "revealed a major phosphoprotein of approximately 60 kD"},
      {"measurement": "wild type DRG neurons in which GDNF-evoked changes in [Ca^2+]i were observed", "setting": "[2]", "value": "60-70%"},
      {"measurement": "change in [Ca^2+]i", "setting": "[2]; GDNF 10 ng/ml", "value": "induced a rapid transient increase in [Ca^2+]i"},
      {"measurement": "change in [Ca^2+]i", "setting": "[2]; GDNF concentrations over 10 ng/ml (10-100 ng/ml)", "value": "evoked rapid and long-lasting elevations in [Ca^2+]i; also recorded: evoked both a transient and slow long-lasting elevation in [Ca^2+]i"}
    ]}
  ]
}
